Molecular target: γ-tubulin ring complex (γTuRC), purified (human (endogenous in HEK293T), UniProt P23258 1-451; Q9BSJ2 1-902; Q96CW5 1-907; Q9UGJ1 1-667; Q96RT8 1-1024; Q96RT7 …)
Experiment: cell-based or functional assay

IC50 of inhibition of in vitro microtubule nucleation by purified γTuRCs reconstituted with CDK5RAP2(51–200) (28 nM); PolD1 at various concentrations: 98 nM
B1: recombinant FLAG-PolD1 (wild type), purified (natural protein, human, UniProt P28340 1-1107, looked up)
chain: MDGKRRPGPGPGVPPKRARGGLWDDDDAPRPSQFEEDLALMEEMEAEHRLQEQEEEELQSVLEGVADGQVPPSAIDPRWLRPTPPALDPQTEPLIFQQLEIDHYVGPAQPVPGGPPPSRGSVPVLRAFGVTDEGFSVCCHIHGFAPYFYTPAPPGFGPEHMGDLQRELNLAISRDSRGGRELTGPAVLAVELCSRESMFGYHGHGPSPFLRITVALPRLVAPARRLLEQGIRVAGLGTPSFAPYEANVDFEIRFMVDTDIVGCNWLELPAGKYALRLKEKATQCQLEADVLWSDVVSHPPEGPWQRIAPLRVLSFDIECAGRKGIFPEPERDPVIQICSLGLRWGEPEPFLRLALTLRPCAPILGAKVQSYEKEEDLLQAWSTFIRIMDPDVITGYNIQNFDLPYLISRAQTLKVQTFPFLGRVAGLCSNIRDSSFQSKQTGRRDTKVVSMVGRVQMDMLQVLLREYKLRSYTLNAVSFHFLGEQKEDVQHSIITDLQNGNDQTRRRLAVYCLKDAYLPLRLLERLMVLVNAVEMARVTGVPLSYLLSRGQQVKVVSQLLRQAMHEGLLMPVVKSEGGEDYTGATVIEPLKGYYDVPIATLDFSSLYPSIMMAHNLCYTTLLRPGTAQKLGLTEDQFIRTPTGDEFVKTSVRKGLLPQILENLLSARKRAKAELAKETDPLRRQVLDGRQLALKVSANSVYGFTGAQVGKLPCLEISQSVTGFGRQMIEKTKQLVESKYTVENGYSTSAKVVYGDTDSVMCRFGVSSVAEAMALGREAADWVSGHFPSPIRLEFEKVYFPYLLISKKRYAGLLFSSRPDAHDRMDCKGLEAVRRDNCPLVANLVTASLRRLLIDRDPEGAVAHAQDVISDLLCNRIDISQLVITKELTRAASDYAGKQAHVELAERMRKRDPGSAPSLGDRVPYVIISAAKGVAAYMKSEDPLFVLEHSLPIDTQYYLEQQLAKPLLRIFEPILGEGRAEAVLLRGDHTRCKTVLTGKVGGLLAFAKRRNCCIGCRTVLSHQGAVCEFCQPRESELYQKEVSHLNALEERFSRLWTQCQRCQGSLHEDVICTSRDCPIFYMRKKVRKDLEDQEQLLRRFGPPGPEAW

— paper PMC5601897, “The catalytic subunit of DNA polymerase δ inhibits γTuRC activity and regulates Golgi-derived microtubules” (Nature Communications, 2017)
